Patent US20120034160A1 (AbbVie / Abbott, published 2012)

B1: DVD1286 (bispecific antibody, human IgG1, kappa)
heavy: not shown
light: DTQVTQSPSSLSASVGDRVTITCITSTDIDVDMNWYQQKPGKPPKLLISQGNTLRPGVPSRFSSSGSGTDFTFTISSLQPEDFATYYCLQSDNLPLTFGQGTKLEIKRTVAAPEIVLTQSPDFQSVTPKEKVTITCRASQNIGSELHWYQQKPDQSPKLLIKYASHSISGVPSRFSGSGSGTDFTLTINGLEAEDAATYYCHQSDTLPHTFGQGTKVDIKRTVAAPSVFIFPPSDEQLKSGTASVVCLLNNFYPREAKVQWKVDNALQSGNSQESVTEQDSKDSTYSLSSTLTLSKADYEKHKVYACEVTHQGLSSPVTKSFNRGEC
notes: DVD-Ig, outer AB270, inner AB275, linker set 1; V1 wt hIgG1, V2 kappa; also called DVD1286H; DVD1286L
B2: DVD1290 (bispecific antibody, human IgG1, kappa)
heavy: not shown
light: ETTVTQSPSSLSASVGDRVTITCITSTDIDVDMNWYQQKPGKPPKLLISQGNTLRPGVPSRFSSSGSGTDFTFTISSLQPEDFATYYCLQSDNLPLTFGQGTKLEIKRTVAAPEIVLTQSPDFQSVTPKEKVTITCRASQNIGSELHWYQQKPDQSPKLLIKYASHSISGVPSRFSGSGSGTDFTLTINGLEAEDAATYYCHQSDTLPHTFGQGTKVDIKRTVAAPSVFIFPPSDEQLKSGTASVVCLLNNFYPREAKVQWKVDNALQSGNSQESVTEQDSKDSTYSLSSTLTLSKADYEKHKVYACEVTHQGLSSPVTKSFNRGEC
notes: DVD-Ig, outer AB272, inner AB275, linker set 1; V1 wt hIgG1, V2 kappa; also called DVD1290H; DVD1290L
B3: AB273 (antibody, human IgG1, kappa, V domains shown)
VH: EVQLVQSGAEVKKPGSSVKVSCKASGYTFTDYEIHWVRQAPGQGLEWMGVNDPESGGTFYNQKFDGRVTLTADESTSTAYMELSSLRSEDTAVYYCTRYSKWDSFDGMDYWGQGTTVTVSS
VL: DIQMTQSPSSLSASVGDRVTITCRASSGIISYIDWFQQKPGKAPKRLIYATFDLASGVPSRFSGSGSGTDYTLTISSLQPEDFATYYCRQVGSYPETFGQGTKLEIKR
B4: DVD1268 (bispecific antibody, human IgG1, kappa)
heavy: not shown
light: DTVVTQSPAFLSVTPGEKVTITCITSTDIDVDMNWYQQKPDQPPKLLISQGNTLRPGVPSRFSSSGSGTDFTFTISSLEAEDAATYYCLQSDNLPLTFGQGTKLEIKRTVAAPDIQMTQSPSSLSASVGDRVTITCRASSGIISYIDWFQQKPGKAPKRLIYATFDLASGVPSRFSGSGSGTDYTLTISSLQPEDFATYYCRQVGSYPETFGQGTKLEIKRTVAAPSVFIFPPSDEQLKSGTASVVCLLNNFYPREAKVQWKVDNALQSGNSQESVTEQDSKDSTYSLSSTLTLSKADYEKHKVYACEVTHQGLSSPVTKSFNRGEC
B5: DVD1288 (bispecific antibody, human IgG1, kappa)
heavy: not shown
light: DTVVTQSPAFLSVTPGEKVTITCITSTDIDVDMNWYQQKPDQPPKLLISQGNTLRPGVPSRFSSSGSGTDFTFTISSLEAEDAATYYCLQSDNLPLTFGQGTKLEIKRTVAAPEIVLTQSPDFQSVTPKEKVTITCRASQNIGSELHWYQQKPDQSPKLLIKYASHSISGVPSRFSGSGSGTDFTLTINGLEAEDAATYYCHQSDTLPHTFGQGTKVDIKRTVAAPSVFIFPPSDEQLKSGTASVVCLLNNFYPREAKVQWKVDNALQSGNSQESVTEQDSKDSTYSLSSTLTLSKADYEKHKVYACEVTHQGLSSPVTKSFNRGEC
notes: DVD-Ig, outer AB271, inner AB275, linker set 1; V1 wt hIgG1, V2 kappa; also called DVD1288H; DVD1288L
B6: DVD1262 (bispecific antibody, human IgG1, kappa)
heavy: not shown
light: DIQMTQSPSSLSASVGDRVTITCRASGNIHNYLTWYQQTPGKAPKLLIYNAKTLADGVPSRFSGSGSGTDYTFTISSLQPEDIATYYCQHFWSIPYTFGQGTKLQITRTVAAPDIQMTQSPSSLSASVGDRVTITCRASSGIISYIDWFQQKPGKAPKRLIYATFDLASGVPSRFSGSGSGTDYTLTISSLQPEDFATYYCRQVGSYPETFGQGTKLEIKRTVAAPSVFIFPPSDEQLKSGTASVVCLLNNFYPREAKVQWKVDNALQSGNSQESVTEQDSKDSTYSLSSTLTLSKADYEKHKVYACEVTHQGLSSPVTKSFNRGEC
B7: DVD1264 (bispecific antibody, human IgG1, kappa)
heavy: not shown
light: DIQMTQSPSSLSASVGDRVTITCRASGNIHNYLTWYQQTPGKAPKLLIYNAKTLADGVPSRFSGSGSGTDYTFTISSLQPEDIATYYCQHFWSIPYTFGQGTKLQITRTVAAPDIQMTQSPSSLSASVGDRVTITCRASSGIISYIDWFQQKPGKAPKRLIYATFDLASGVPSRFSGSGSGTDYTLTISSLQPEDFATYYCRQVGSYPETFGQGTKLEIKRTVAAPSVFIFPPSDEQLKSGTASVVCLLNNFYPREAKVQWKVDNALQSGNSQESVTEQDSKDSTYSLSSTLTLSKADYEKHKVYACEVTHQGLSSPVTKSFNRGEC
B8: DVD1267 (bispecific antibody, human IgG1, kappa)
heavy: not shown
light: DIQMTQSPSSLSASVGDRVTITCRASSGIISYIDWFQQKPGKAPKRLIYATFDLASGVPSRFSGSGSGTDYTLTISSLQPEDFATYYCRQVGSYPETFGQGTKLEIKRTVAAPDTQVTQSPSSLSASVGDRVTITCITSTDIDVDMNWYQQKPGKPPKLLISQGNTLRPGVPSRFSSSGSGTDFTFTISSLQPEDFATYYCLQSDNLPLTFGQGTKLEIKRTVAAPSVFIFPPSDEQLKSGTASVVCLLNNFYPREAKVQWKVDNALQSGNSQESVTEQDSKDSTYSLSSTLTLSKADYEKHKVYACEVTHQGLSSPVTKSFNRGEC
B9: DVD1271 (bispecific antibody, human IgG1, kappa)
heavy: not shown
light: DIQMTQSPSSLSASVGDRVTITCRASSGIISYIDWFQQKPGKAPKRLIYATFDLASGVPSRFSGSGSGTDYTLTISSLQPEDFATYYCRQVGSYPETFGQGTKLEIKRTVAAPETTVTQSPSSLSASVGDRVTITCITSTDIDVDMNWYQQKPGKPPKLLISQGNTLRPGVPSRFSSSGSGTDFTFTISSLQPEDFATYYCLQSDNLPLTFGQGTKLEIKRTVAAPSVFIFPPSDEQLKSGTASVVCLLNNFYPREAKVQWKVDNALQSGNSQESVTEQDSKDSTYSLSSTLTLSKADYEKHKVYACEVTHQGLSSPVTKSFNRGEC
B10: DVD1266 (bispecific antibody, human IgG1, kappa)
heavy: not shown
light: DTQVTQSPSSLSASVGDRVTITCITSTDIDVDMNWYQQKPGKPPKLLISQGNTLRPGVPSRFSSSGSGTDFTFTISSLQPEDFATYYCLQSDNLPLTFGQGTKLEIKRTVAAPDIQMTQSPSSLSASVGDRVTITCRASSGIISYIDWFQQKPGKAPKRLIYATFDLASGVPSRFSGSGSGTDYTLTISSLQPEDFATYYCRQVGSYPETFGQGTKLEIKRTVAAPSVFIFPPSDEQLKSGTASVVCLLNNFYPREAKVQWKVDNALQSGNSQESVTEQDSKDSTYSLSSTLTLSKADYEKHKVYACEVTHQGLSSPVTKSFNRGEC
B11: DVD1270 (bispecific antibody, human IgG1, kappa)
heavy: not shown
light: ETTVTQSPSSLSASVGDRVTITCITSTDIDVDMNWYQQKPGKPPKLLISQGNTLRPGVPSRFSSSGSGTDFTFTISSLQPEDFATYYCLQSDNLPLTFGQGTKLEIKRTVAAPDIQMTQSPSSLSASVGDRVTITCRASSGIISYIDWFQQKPGKAPKRLIYATFDLASGVPSRFSGSGSGTDYTLTISSLQPEDFATYYCRQVGSYPETFGQGTKLEIKRTVAAPSVFIFPPSDEQLKSGTASVVCLLNNFYPREAKVQWKVDNALQSGNSQESVTEQDSKDSTYSLSSTLTLSKADYEKHKVYACEVTHQGLSSPVTKSFNRGEC
B12: DVD1269 (bispecific antibody, human IgG1, kappa)
heavy: not shown
light: DIQMTQSPSSLSASVGDRVTITCRASSGIISYIDWFQQKPGKAPKRLIYATFDLASGVPSRFSGSGSGTDYTLTISSLQPEDFATYYCRQVGSYPETFGQGTKLEIKRTVAAPDTVVTQSPAFLSVTPGEKVTITCITSTDIDVDMNWYQQKPDQPPKLLISQGNTLRPGVPSRFSSSGSGTDFTFTISSLEAEDAATYYCLQSDNLPLTFGQGTKLEIKRTVAAPSVFIFPPSDEQLKSGTASVVCLLNNFYPREAKVQWKVDNALQSGNSQESVTEQDSKDSTYSLSSTLTLSKADYEKHKVYACEVTHQGLSSPVTKSFNRGEC
B13: DVD1263 (bispecific antibody, human IgG1, kappa)
heavy: not shown
light: DIQMTQSPSSLSASVGDRVTITCRASSGIISYIDWFQQKPGKAPKRLIYATFDLASGVPSRFSGSGSGTDYTLTISSLQPEDFATYYCRQVGSYPETFGQGTKLEIKRTVAAPDIQMTQSPSSLSASVGDRVTITCRASGNIHNYLTWYQQTPGKAPKLLIYNAKTLADGVPSRFSGSGSGTDYTFTISSLQPEDIATYYCQHFWSIPYTFGQGTKLQITRTVAAPSVFIFPPSDEQLKSGTASVVCLLNNFYPREAKVQWKVDNALQSGNSQESVTEQDSKDSTYSLSSTLTLSKADYEKHKVYACEVTHQGLSSPVTKSFNRGEC
B14: DVD1265 (bispecific antibody, human IgG1, kappa)
heavy: not shown
light: DIQMTQSPSSLSASVGDRVTITCRASSGIISYIDWFQQKPGKAPKRLIYATFDLASGVPSRFSGSGSGTDYTLTISSLQPEDFATYYCRQVGSYPETFGQGTKLEIKRTVAAPDIQMTQSPSSLSASVGDRVTITCRASGNIHNYLTWYQQTPGKAPKLLIYNAKTLADGVPSRFSGSGSGTDYTFTISSLQPEDIATYYCQHFWSIPYTFGQGTKLQITRTVAAPSVFIFPPSDEQLKSGTASVVCLLNNFYPREAKVQWKVDNALQSGNSQESVTEQDSKDSTYSLSSTLTLSKADYEKHKVYACEVTHQGLSSPVTKSFNRGEC

Tests used:
[1] = biological target: T1, Recombinant Human IL-1β (human, UniProt P01584 117-269); assay: Biacore SPR; N-terminal VD
T1 construct: bought reagent; also called IL-1B
Outline: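 SPR, 25° C, HBS-EP (10 mM HEPES pH 7.4, 150 mM NaCl, 3 mM EDTA, 0.005% P20). Capture via anti-mouse IgG Fcγ chip; analyte 10−200 nM at 25 μl/min. 1:1 Langmuir global fit; KD = koff/kon.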

[2] = biological target: T2, Recombinant Human IL-17 (human, UniProt Q16552 20-155, limits assumed); assay: cell-based or functional assay
T2 sequence (looked up): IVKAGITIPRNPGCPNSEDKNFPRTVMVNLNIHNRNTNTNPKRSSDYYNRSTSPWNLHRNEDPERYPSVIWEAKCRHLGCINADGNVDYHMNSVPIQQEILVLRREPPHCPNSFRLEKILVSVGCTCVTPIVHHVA

[3] = biological target: Recombinant Human IL-1β (human, UniProt P01584 117-269); assay: cell-based or functional assay

Binder	C-terminal VD IL-17 Neutralization Assay EC50 [2]	N-Terminal VD IL-1β Neutralization Assay EC50 [3]	N-terminal VD IL-17 Neutralization Assay EC50 [2]	C-Terminal VD IL-1β Neutralization Assay EC50 [3]	further results
B1					Kd [1]: 0.07 nM; koff [1]: 0.0005 s⁻¹; kon [1]: 7.2e+06 M⁻¹ s⁻¹
B2					Kd [1]: 0.086 nM; koff [1]: 0.00065 s⁻¹; kon [1]: 7.5e+06 M⁻¹ s⁻¹
B3					IL-17 Neutralization Assay EC50 [2]: 0.0161 nM
B4	0.0034 nM	0.146 nM			
B5					Kd [1]: 0.076 nM; koff [1]: 0.00046 s⁻¹; kon [1]: 6.1e+06 M⁻¹ s⁻¹
B6	0.0162 nM	0.0164 nM			
B7	0.0084 nM	0.12 nM			
B8			10.9 pM	> 40 nM	
B9			10.9 pM	> 30 nM	
B10	0.015 nM	0.327 nM			
B11	0.0407 nM	0.265 nM			
B12			8.2 pM	> 45 nM	
B13			5.2 pM	20 nM	
B14			2.8 pM	0.925 nM	
